Target: the molecule itself
Assay: SEC

Protein | stoichiometry N | binding result
human TRAF2 construct RZ1 (RING and first zinc finger domains, residues 1-133-His), wild type (domain or fragment, UniProt Q12933 1-133, looked up) MAAASVTPPGSLELLQPGFSKTLLGTKLEAKYLCSACRNVLRRPFQAQCGHRYCSFCLASILSSGPQNCAACVHEGIYEEGISILESSSAFPDNAARREVESLPAVCPSDGCTWKGTLKEYESCHEGRCPLML | 2 | –
TRAF2 RZ1 N94A mutant (domain or fragment, human, UniProt Q12933 1-133, looked up) MAAASVTPPGSLELLQPGFSKTLLGTKLEAKYLCSACRNVLRRPFQAQCGHRYCSFCLASILSSGPQNCAACVHEGIYEEGISILESSSAFPDAAARREVESLPAVCPSDGCTWKGTLKEYESCHEGRCPLML | – | binds
TRAF2 RZ1 Q46A mutant (domain or fragment, human, UniProt Q12933 1-133, looked up) MAAASVTPPGSLELLQPGFSKTLLGTKLEAKYLCSACRNVLRRPFAAQCGHRYCSFCLASILSSGPQNCAACVHEGIYEEGISILESSSAFPDNAARREVESLPAVCPSDGCTWKGTLKEYESCHEGRCPLML | – | binds
